Laboratory results from patent US20160375113A1, “COMPOSITIONS COMPRISING ENO1 AND THEIR USE IN METHODS OF TREATING OBESITY OR OVERWEIGHT AND REDUCING WEIGHT GAIN” (Berg LLC, priority 2015, published 2016).
Entries after “also recorded” stand apart in the source; their conditions may differ.

What was measured:
[1] = Storage stability by ENO1 Human Activity Assay Kit (PK/LDH, NADH consumption); format: physicochemical; details: 500 ng Eno1; for activity at end of study (Week 10), −20° C.: kept at −20° C.; for activity retained at end of study (Week 10), −80° C.: kept at −80° C.; for Eno1 activity after storage, week 3, 4° C., 22° C., and 37° C.: stored at 4° C.; for Eno1 activity after storage, week 3, 4° C., 22° C., and 37° C. / Eno1 activity after storage, week 3, −80° C. and −20° C.: by week 3; for Eno1 activity after storage, week 3, −80° C. and −20° C.: stored at −80° C. and −20° C.; for Eno1 activity after storage, first week: stored at −80° C., −20° C., 4° C.; for Eno1 activity after storage, week 3, 4° C., 22° C., and 37° C. / Eno1 activity after storage, first week: 22° C., and 37° C.
Experimental: The stability of the Eno1-dendrimer-SMTP complex was evaluated at different temperatures, and stability was determined over a 3-4 month time period by measuring Eno1 activity using a commercially available Eno1 assay. The selected conjugates were also evaluated using biophysical techniques, including Dynamic Light Scattering (DLS) and UV-Vis spectroscopy to confirm complexation between the dendrimer-peptide conjugate and Eno1.
The stability of the Enolase-I/G5-dendrimer/SMTP conjugates was measured by using the ENO1 Human Activity Assay Kit (ABCAM, Cambridge, Mass.; Catalogue No. ab117994). Briefly, the sample was added to a microplate containing a monoclonal mouse antibody specific to Eno1. The microplate was incubated at room temperature for 2 hours, and Eno1 was immunocaptured within the wells of the microplate. The wells of the microplate were washed to remove all other enzymes. Eno1 activity was determined by following the consumption of NADH in an assay buffer that included pyruvate kinase (PK), lactate dehydrogenase (LDH) and the required substrates 2-phospho-D-glycerate (2PG) and NADH. Eno1 converts 2PG to phosphoenolpyruvate, which is converted to pyruvate by PK. Pyruvate is converted to lactate by LDH, and this reaction requires NADH. The consumption of NADH was monitored as decrease of absorbance at 340 nm.
The activity of Enolase-I/G5-dendrimer/SMTP conjugates that were stored at different temperatures at different time points was measured using the assay described above. A concentration of 500 ng of Eno1 was selected for testing because this concentration falls in the middle of the dynamic range of the assay kit. Two different sets of solutions were prepared. One set (control) contained Eno1 alone (i.e. unconjugated Eno1) and the other set contained Eno1/G5-dendrimer/SMTP mixtures. These mixtures were then kept at −80° C., −20° C., 4° C., 22° C., and 37° C. […] At the end of the study (Week 10), The Eno1/G5-dendrimer/SMTP solution that was kept at −80° C. retained about 90% of its activity whereas Eno1 alone was only 35% active. On the other hand, Eno1/G5-dendrimer/SMTP solution that was kept at −20° C. was about 24% active, whereas Eno1 alone stored at −20° C. was not active.

[2] = Tissue distribution of detectably labeled Eno1 PAMAM dendrimer complexes in mice (LI-COR imaging); format: in vivo
Experimental: A detectably labeled PAMAM dendrimer complex containing Eno1 was prepared using the method provided in the prior example and analyzed for tissue distribution in mice after subcutaneous injection. Specifically, for 72 hours prior to injection mice were fed alfalfa free food to limit background fluorescence. Mice were injected with 3 μg ENO1/mouse subcutaneously 150 μl total (75 μl left laterally, 75 μl right laterally). The molar ratio of dendrimer to Eno1 in the complex was 5:1. One, 4, and 24 hours post injection animals were sacrificed, skinned, and organs removed in preparation for LI-COR imaging.
A follow-up study was performed using the skeletal muscle targeted Eno1-PAMAM dendrimer complex containing the SMTP “ASSLNIA”. A detectably labeled PAMAM dendrimer complex containing Eno1 and SMTP ((Enolase-Vivo Tag680xl)-(G5-SMTP)) was prepared using the method provided in the prior example. The molar ratio of dendrimer to SMTP in the complex was 1:1. The experiments were performed essentially as described above. The skeletal muscle targeted Eno1-PAMAM dendrimer complex was administered at a dose of 50 μg/kg body weight. These images in FIG. 6B were taken after 1 hr of injection. Organs, other than the heart, were retained in the body.

[3] = test system: db/db mice; test: Body weight / weight gain in db/db mice treated with rosiglitazone and muscle targeted Eno1/dendrimer complex; format: in vivo; details: Eno1 400 μg/kg/day subcutaneous added to rosiglitazone 20 mg/kg/day
Experimental: A muscle targeted Eno1/dendrimer complex was generated to analyze its efficacy in reducing weight gain. The dendrimer complex comprised human Eno1, transcript variant 1 protein (SEQ ID NO: 2) which was non-covalently linked to a G5-PAMAM dendrimer/muscle targeting peptide (MTP) (ASSLNIA; SEQ ID NO: 7) conjugate. Stock solutions of Eno1 were prepared in buffer and the protein solution was mixed with the G5 dendrimer-MTP conjugate.
Lean mice and male obese and diabetic db/db mice (male BKS.Cg-m+/+Lepr^db/J) mice were obtained from a commercial vendor. All mice were housed 2-3 per cage at 22° C. on a 12:12 hr day-night cycle and were acclimated for 3 weeks at animal facility on a standard chow diet. At 8 weeks of age, 200 μg/kg body weight Eno1 was administered twice daily (at 9:00 a.m. and 5:00 p.m., 400 μg/kg daily dose) by subcutaneous injection, and 20 mg/kg body weight rosiglitazone was administered once daily by gavage at 9:00 a.m. Lean mice and db/db mice also received subcutaneous injections of saline as a control. The treatment groups were as follows: • 1. lean mice with saline injection (control) • 2. db/db mice with saline injection (control) • 3. db/db mice with rosiglitazone (20 mg/kg, once daily) • 4. db/db mice with rosiglitazone (20 mg/kg, once daily)+Eno1 (200 μg/kg, twice daily) […]

Substance	activity at end of study (Week 10), −20° C. [1]	activity retained at end of study (Week 10), −80° C. [1]	Eno1 activity after storage, week 3, 4° C., 22° C., and 37° C. [1]	Eno1 activity after storage, week 3, −80° C. and −20° C. [1]	Eno1 activity after storage, first week [1]	also measured
Eno1 alone: Eno1 alone (i.e. unconjugated Eno1), control in the stability study	not active	35%	no activity	significant stability	active	
Eno1-PAMAM dendrimer: detectably labeled PAMAM dendrimer complex containing Eno1, molar ratio of dendrimer to Eno1 5:1, no targeting peptide						tissue distribution, 1 hour post injection ([2]; subcutaneous, 3 μg ENO1/mouse, dendrimer to Eno1 5:1, 1 hour (FIG. 6A)): general systemic distribution; tissue distribution, 4 hours post injection ([2]; subcutaneous, 3 μg ENO1/mouse, dendrimer to Eno1 5:1, 4 hours (FIG. 6A)): significant accumulation of the Eno1-PAMAM dendrimer was observed in liver, kidney, and subcutaneous fat, as well as in the upper torso; tissue distribution, 24 hours post injection ([2]; subcutaneous, 3 μg ENO1/mouse, dendrimer to Eno1 5:1, 24 hours (FIG. 6A)): substantially cleared and observed substantially in the liver and kidney
Eno1/G5-dendrimer/SMTP: Eno1 complexed with Generation 5 PAMAM dendrimers decorated with Skeletal Muscle Targeting Peptides (SMTPs)	about 24%	about 90%	no activity	significant stability	active; also recorded: slightly higher activity than Eno1 alone	
Eno1: In Example 1: human Eno1 transcript variant 1 protein (SEQ ID NO: 2) non-covalently linked to G5-PAMAM dendrimer/muscle targeting peptide (ASSLNIA) conjugate						effect on rosiglitazone-induced weight gain [3]: attenuates rosiglitazone-induced weight gain; also recorded: attenuates rosiglitazone induced weight gain; also recorded: attenuated
muscle-targeted Eno1 dendrimer complex: detectably labeled PAMAM dendrimer complex containing Eno1 and SMTP ASSLNIA, dendrimer to SMTP 1:1						tissue distribution of muscle targeted complex, 1 hr after injection ([2]; 50 μg/kg body weight, dendrimer to SMTP 1:1, 1 hr (FIG. 6B)): targeted to skeletal muscle, not heart
